Test results as given in US20230287458, “RECOMBINANT ADENO-ASSOCIATED VIRAL […] FOR […] GENE […]” (Abeona Therapeutics Inc., published 2023).

Biological target: Cre recombinase (UniProt P06956 P06956:1-343)
Test: cell_activity; Lox66 partner site of Lox71 in same experiment; full-length ABCA4 mRNA relative to the pair without Cre
Settings: tags: NLS; expressed from the 5' ABCA4 vector after T2A self-cleavage; chain copies: 4
Description: We quantified the expression levels of full-length ABCA4 mRNA in cells transfected with various plasmids.

Sequence of Cre recombinase (P06956 whole entry, one chain of several): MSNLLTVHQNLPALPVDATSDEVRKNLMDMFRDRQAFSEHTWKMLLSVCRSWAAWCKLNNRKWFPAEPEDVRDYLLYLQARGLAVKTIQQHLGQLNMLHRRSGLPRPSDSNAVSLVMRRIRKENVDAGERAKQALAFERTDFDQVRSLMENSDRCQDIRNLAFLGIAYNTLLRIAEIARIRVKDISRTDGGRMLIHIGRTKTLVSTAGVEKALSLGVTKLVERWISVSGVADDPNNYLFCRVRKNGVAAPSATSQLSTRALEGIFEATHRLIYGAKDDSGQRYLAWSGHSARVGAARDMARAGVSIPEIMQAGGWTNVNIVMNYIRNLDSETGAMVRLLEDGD

B1: Lox66 (dsDNA)
DNA 1: ATAACTTCGTATAATGTATGCTATACGAACGGTA
DNA 2: TACCGTTCGTATAGCATACATTATACGAAGTTAT
- activity: ~55 fold
